Assay results from patent US11618906B2, “Hydroxylation techniques” (HYPHA DISCOVERY LTD., priority 2018, dated 2023).

Legend:
Assay type in all cases: biochemical
[1] = O-demethylation of indomethacin catalysed by cytochrome P450 aluC09 and mutants; conditions: % by UV peak area at 275 nm; 0.125 mg/ml substrate, 27° C., 16-20 hours
How it was run: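 Conversion was quantified by UPLC-UV/MS after acetonitrile extraction of 16-20 h, 27° C. shaken reactions. These contained 0.125 mg/ml substrate, mutant P450 with partner ferredoxin and reductase, 1 mM NADP plus 5 mM G6P and 2 U/ml G6PDH, in pH 7.4 phosphate with 5 mM MgCl2.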

[2] = Hydroxylation of flufenamic acid catalysed by cytochrome P450 aluC09 and mutants; conditions: for Flufenamic Acid (Substrate) 1.93 mins / Hydroxy-Flufenamic Acid (1) 1.69 mins / Hydroxy-Flufenamic Acid (2) 1.65 mins: % by UV peak area at 275 nm, 0.125 mg/ml substrate, 27° C., 16-20 hours; for Hydroxylated Ratio 1:2: flufenamic acid, ratio of UV peak areas at 275 nm
How it was run: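 Conversion measured by UPLC-MS (UV and MS) after acetonitrile extraction, following 16-20 h shaking at 27° C. Reaction: 0.125 mg/ml substrate, P450 mutant plus ferredoxin aluF03 and reductase SCF15A, 5 mM G6P, 1 mM NADP, 2 U/ml G6PDH, pH 7.4 phosphate with 5 mM MgCl2.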

[3] = Metabolism of BIRB796 by P450 aluC09 and mutants; conditions: percent of substrate being converted; 0.125 mg/ml, 27° C., 16-20 hours; [CYP] per enzyme as in Table 8
How it was run: (§1)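 Lyophilised P450 aluC09 mutants with ferredoxin aluF03 and reductase SCF15A converted 0.125 mg/ml substrate in 50 mM potassium phosphate pH 7.4, 5 mM MgCl2, with G6P/NADP/G6PDH cofactor regeneration, for 16-20 h at 27° C with shaking. Acetonitrile-quenched mixtures were analysed by UPLC-MS for conversion.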

[4] = Metabolism of tofacitinib by P450 aluC09 and mutants; conditions: percent of substrate being converted; 0.125 mg/ml, 27° C., 16-20 hours; [CYP] per enzyme as in Table 8
How it was run: as §1

[5] = Metabolism of 4-pyrrolidylacetophenone by P450 aluC09 and mutants; conditions: percent of substrate being converted; 0.125 mg/ml, 27° C., 16-20 hours; [CYP] per enzyme as in Table 8
How it was run: as §1

[6] = Metabolism of ritonavir by P450 aluC09 and mutants; conditions: percent of substrate being converted; 0.125 mg/ml, 27° C., 16-20 hours; [CYP] per enzyme as in Table 8
How it was run: as §1

[7] = Metabolism of celecoxib by P450 aluC09 and mutants; conditions: percent of substrate being converted; 0.125 mg/ml, 27° C., 16-20 hours; [CYP] per enzyme as in Table 8
How it was run: as §1

[8] = Metabolism of epothilone B by P450 aluC09 and mutants; conditions: percent of substrate being converted; 0.125 mg/ml, 27° C., 16-20 hours; [CYP] per enzyme as in Table 8
How it was run: as §1

[9] = Metabolism of valsartan by P450 aluC09 and mutants; conditions: percent of substrate being converted; 0.125 mg/ml, 27° C., 16-20 hours; [CYP] per enzyme as in Table 8
How it was run: as §1

[10] = Metabolism of tivantinib by P450 aluC09 and mutants; conditions: percent of substrate being converted; 0.125 mg/ml, 27° C., 16-20 hours; [CYP] per enzyme as in Table 8
How it was run: as §1

[11] = Metabolism of ruxolitinib by P450 aluC09 and mutants; conditions: percent of substrate being converted; 0.125 mg/ml, 27° C., 16-20 hours; [CYP] per enzyme as in Table 8
How it was run: as §1

[12] = Metabolism of buparvaquone by P450 aluC09 and mutants; conditions: percent of substrate being converted; 0.125 mg/ml, 27° C., 16-20 hours; [CYP] per enzyme as in Table 8
How it was run: as §1

[13] = Hydroxylation / de-N-ethylation of napropamide catalysed by cytochrome P450 aluC09 and mutants; conditions: for Desethyl Napropamide (1.62 min) / Desethyl-hydroxy-Napropamide (1.41 min) / Hydroxy-Napropamide (1) (1.53 min) / Hydroxy-Napropamide (2), (1.52 min) / M-2Da (unidentified) (1.89 min) / Napropamide (substrate): % by UV peak area at 275 nm, 0.125 mg/ml substrate, 27° C., 16-20 hours; for Hydroxylated Ratio 2:1: napropamide, ratio of UV peak areas
How it was run: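 Conversion of napropamide (0.125 mg/ml) to hydroxylated and de-ethylated metabolites was measured by UPLC-MS after acetonitrile extraction. Reactions ran 16-20 h at 27° C in pH 7.4 potassium phosphate (50 mM) with 5 mM MgCl2, 1 mM NADP, 5 mM G6P and 2 UN/ml G6PDH. Enzymes were lyophilised P450 aluC09 variants, ferredoxin aluF03 and ferredoxin reductase SCF15A.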

[14] = Hydroxylation of aceclofenac catalysed by cytochrome P450 aluC09 and mutants; conditions: for Aceclofenac (Substrate) (1.80 mins) / Dihydroxy-Aceclofenac (1.42 mins) / Hydroxy-Aceclofenac (1) (1.64 min) / Hydroxy-Aceclofenac (2) (1.60 min): % by UV peak area at 275 nm, 0.125 mg/ml substrate, 27° C., 16-20 hours; for Hydroxylated Ratio 2:1: aceclofenac, ratio of UV peak areas at 275 nm
How it was run: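 Conversion was assessed by UPLC-MS (UV and MS detection) after acetonitrile extraction of reactions run 16-20 h at 27° C, shaking. Reactions contained substrate at 0.125 mg/ml, P450 mutant plus ferredoxin and reductase partners, 1 mM NADP with glucose-6-phosphate regeneration, in phosphate buffer pH 7.4.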

[15] = Hydroxylation of diclofenac catalysed by cytochrome P450 aluC09 and mutants (UPLC-PDA-MS); conditions: for 4′,5-dihydroxy-diclofenac 1.38 mins / 4′-hydroxy-diclofenac (1) 1.62 mins / 5-hydroxy-diclofenac (2) 1.58 mins / Diclofenac (Substrate) 1.81 mins: % by UV peak area at 275 nm, 0.125 mg/ml substrate, 27° C., 16-20 hours; for Hydroxylated Ratio hydroxy 1:hydroxy 2: diclofenac, ratio of UV peak areas at 275nm
How it was run: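 Conversion of diclofenac (0.125 mg/ml) to hydroxy metabolites measured by UPLC with UV and MS detection, identities confirmed by authentic samples. Reactions used P450 aluC09 variants with ferredoxin aluF03, reductase SCF15A and an NADP/G6P/G6PDH recycling system, pH 7.4 phosphate, 27° C, 16-20 hours.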

[16] = Metabolism of bosentan by P450 aluC09 and mutants; conditions: percent of substrate being converted; 0.125 mg/ml, 27° C., 16-20 hours; [CYP] per enzyme as in Table 8
How it was run: as §1

B1: aluC09: wild-type cytochrome P450 aluC09 from Amycolatopsis lurida NRRL-2430; amino acid sequence SEQ ID NO: 2 (protein, listed as Amycolatopsis lurida)
chain: MTDVEETTATLPLARKCPFSPPPEYERLRRESPVSRVGLPSGQTAWALTRLEDIREMLSSPHFSSDRQSPSFPLMVARQIRREDKPFRPSLIAMDPPEHSRARRDVVGEFTVKRMKALQPRIQQIVDEHLDALLAGPKPADLVQALSLPVPSLVICELLGVPYSDHEFFQSCSSRMLSREVTAEERMTAFEQLENYLDELVTKKEANATEDDLLGRQILKQRETGEADHGELVGLAFLLLIAGHETTANMISLGTVTLLENPDQLAKIKADPGKTLAAIEELLRVFTIAETATSRFATADVEIGGTLIRAGEGVVGLSNAGNHDPDGFENPDTFDIERGARHHVAFGFGVHQCLGQNLARLELQIVFDTLFRRVPGLRIAVPVDELPFKHDSTIYGLHALPVTW
- Indomethacin (1.74 mins) [1]: 83.6%
- O-demethyl-Indomethacin (1.52 mins) [1]: 16.4%
- Flufenamic Acid (Substrate) 1.93 mins [2]: 93.1%
- Hydroxy-Flufenamic Acid (1) 1.69 mins [2]: 4.5%
- Hydroxy-Flufenamic Acid (2) 1.65 mins [2]: 2.4%
- Hydroxylated Ratio 1:2 [2]: 1.9
- % conversions (avg) BIRB796 [3]: 13.4%
- % conversions (avg) Tofacitinib [4]: 1.4%
- % conversions (avg) 4-pyrrolidylacetophenone [5]: 5.6%
- % conversions (avg) Ritonavir [6]: 59.6%
- % conversions (avg) Celecoxib [7]: 2.5%
- % conversions (avg) Epothilone B [8]: 18.4%
- % conversions (avg) Valsartan [9]: 28.9%
- % conversions (avg) Tivantinib [10]: 41.4%
- % conversions (avg) Ruxolitinib [11]: 46.6%
- % conversions (avg) Buparvaquone [12]: 14%
- Desethyl Napropamide (1.62 min) [13]: 44.8%
- Desethyl-hydroxy-Napropamide (1.41 min) [13]: 5.4%
- Hydroxy-Napropamide (1) (1.53 min) [13]: 2.0%
- Hydroxy-Napropamide (2), (1.52 min) [13]: 4.0%
- M-2Da (unidentified) (1.89 min) [13]: 6.6%
- Napropamide (substrate) [13]: 39.3%
- Hydroxylated Ratio 2:1 [13]: 2.1
- Aceclofenac (Substrate) (1.80 mins) [14]: 18.0%
- Dihydroxy-Aceclofenac (1.42 mins) [14]: 36.5%
- Hydroxy-Aceclofenac (1) (1.64 min) [14]: 5.7%
- Hydroxy-Aceclofenac (2) (1.60 min) [14]: 39.8%
- Hydroxylated Ratio 2:1 [14]: 7.0
- 4′,5-dihydroxy-diclofenac 1.38 mins [15]: 3.1%
- 4′-hydroxy-diclofenac (1) 1.62 mins [15]: 27.0%
- 5-hydroxy-diclofenac (2) 1.58 mins [15]: 26.2%
- Diclofenac (Substrate) 1.81 mins [15]: 45.2%
- Hydroxylated Ratio hydroxy 1:hydroxy 2 [15]: 1.0
- % conversions (avg) Bosentan [16]: 98.8%

B2: aluC09M12: cytochrome P450 aluC09 mutant T291E; amino acid sequence SEQ ID NO: 12 (protein, listed as Amycolatopsis lurida)
chain: MTDVEETTATLPLARKCPFSPPPEYERLRRESPVSRVGLPSGQTAWALTRLEDIREMLSSPHFSSDRQSPSFPLMVARQIRREDKPFRPSLIAMDPPEHSRARRDVVGEFTVKRMKALQPRIQQIVDEHLDALLAGPKPADLVQALSLPVPSLVICELLGVPYSDHEFFQSCSSRMLSREVTAEERMTAFEQLENYLDELVTKKEANATEDDLLGRQILKQRETGEADHGELVGLAFLLLIAGHETTANMISLGTVTLLENPDQLAKIKADPGKTLAAIEELLRVFTIAEEATSRFATADVEIGGTLIRAGEGVVGLSNAGNHDPDGFENPDTFDIERGARHHVAFGFGVHQCLGQNLARLELQIVFDTLFRRVPGLRIAVPVDELPFKHDSTIYGLHALPVTW
- Indomethacin (1.74 mins) [1]: 94.6%
- O-demethyl-Indomethacin (1.52 mins) [1]: 5.4%
- Flufenamic Acid (Substrate) 1.93 mins [2]: 95.9%
- Hydroxy-Flufenamic Acid (1) 1.69 mins [2]: 2.0%
- Hydroxy-Flufenamic Acid (2) 1.65 mins [2]: 2.1%
- Hydroxylated Ratio 1:2 [2]: 0.9
- % conversions (avg) BIRB796 [3]: 23%
- % conversions (avg) Tofacitinib [4]: 0%
- % conversions (avg) 4-pyrrolidylacetophenone [5]: 30.8%
- % conversions (avg) Ritonavir [6]: 31.9%
- % conversions (avg) Celecoxib [7]: 5.4%
- % conversions (avg) Epothilone B [8]: 50.8%
- % conversions (avg) Valsartan [9]: 38%
- % conversions (avg) Tivantinib [10]: 7.2%
- % conversions (avg) Ruxolitinib [11]: 48.9%
- % conversions (avg) Buparvaquone [12]: 9.7%
- Desethyl Napropamide (1.62 min) [13]: 46.0%
- Desethyl-hydroxy-Napropamide (1.41 min) [13]: 9.7%
- Hydroxy-Napropamide (1) (1.53 min) [13]: 2.5%
- Hydroxy-Napropamide (2), (1.52 min) [13]: 5.3%
- M-2Da (unidentified) (1.89 min) [13]: 5.8%
- Napropamide (substrate) [13]: 34.1%
- Hydroxylated Ratio 2:1 [13]: 2.1
- Aceclofenac (Substrate) (1.80 mins) [14]: 25.2%
- Dihydroxy-Aceclofenac (1.42 mins) [14]: 27.8%
- Hydroxy-Aceclofenac (1) (1.64 min) [14]: 7.9%
- Hydroxy-Aceclofenac (2) (1.60 min) [14]: 39.1%
- Hydroxylated Ratio 2:1 [14]: 4.9
- 4′,5-dihydroxy-diclofenac 1.38 mins [15]: 1.8%
- 4′-hydroxy-diclofenac (1) 1.62 mins [15]: 30.3%
- 5-hydroxy-diclofenac (2) 1.58 mins [15]: 10.8%
- Diclofenac (Substrate) 1.81 mins [15]: 58.0%
- Hydroxylated Ratio hydroxy 1:hydroxy 2 [15]: 2.8
- % conversions (avg) Bosentan [16]: 100%
